These results are taken from article PMC6091153.

Several values for one entry are separate records, joined by “and”; a condition that tells them apart may be missing. Identical values can stand only once.

In the assay the target is Saccharomyces cerevisiae glutaredoxin Grx6 (recombinant, without the signal peptide) (S. cerevisiae) (UniProt Q12438). Put plainly: SEC; gel filtration of freshly purified recombinant protein on a Superdex 75 column, elution followed at 280 nm and 430 nm; the dimer peak is brown (Fe-S centre); FeSO4·7H2O and (NH4)2Fe(SO4)2·6H2O added in one run (more dimer and tetramer). For orientation: In gel filtration, larger molecules generally elute earlier.

Take “Saccharomyces cerevisiae glutaredoxin Grx6 (recombinant, without the signal peptide) (from UniProt Q12438 30-231) (natural protein)”: the stoichiometry N (commonly a count of units in the complex or per binding partner) was 4 and 2.
